Results reported in paper PMC7096706.

Molecular target: Trypanosoma cruzi farnesyl pyrophosphate synthase (Trypanosoma cruzi)
Assay: dynamic light scattering; stock solution of tcFPPS thawed from -80°C directly before analysis; Zetasizer Ultra; distribution by volume analysis; monomer to dimer

stoichiometry N: 2
Substance: Trypanosoma cruzi farnesyl pyrophosphate synthase (enzyme)
